In the assay the target is T1, His-tagged LetA (N-terminal 6×His2xQH-TEV-tagged LetA) (E. coli, UniProt P0AD03 1-427).
T1 sequence (looked up): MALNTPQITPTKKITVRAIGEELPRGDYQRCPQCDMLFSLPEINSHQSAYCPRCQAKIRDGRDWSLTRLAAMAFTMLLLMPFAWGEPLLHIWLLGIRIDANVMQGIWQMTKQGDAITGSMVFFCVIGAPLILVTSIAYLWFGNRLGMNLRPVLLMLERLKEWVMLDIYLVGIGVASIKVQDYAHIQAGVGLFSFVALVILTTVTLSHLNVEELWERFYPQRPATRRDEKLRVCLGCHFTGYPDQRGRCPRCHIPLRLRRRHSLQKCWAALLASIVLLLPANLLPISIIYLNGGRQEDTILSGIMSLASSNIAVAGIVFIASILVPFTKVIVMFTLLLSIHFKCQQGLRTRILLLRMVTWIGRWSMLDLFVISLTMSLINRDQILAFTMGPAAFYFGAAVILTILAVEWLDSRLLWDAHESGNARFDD
Briefly: cryo-EM structure.

Consider 1 molecule from article PMC13017536 (Nature, 2026).

B1: LetB (lipophilic envelope-spanning tunnel B), untagged (natural protein, E. coli, UniProt P76272 1-877, looked up)
chain: MSQETPASTTEAQIKNKRRISPFWLLPFIALMIASWLIWDSYQDRGNTVTIDFMSADGIVPGRTPVRYQGVEVGTVQDISLSDDLRKIEVKVSIKSDMKDALREETQFWLVTPKASLAGVSGLDALVGGNYIGMMPGKGKEQDHFVALDTQPKYRLDNGDLMIHLQAPDLGSLNSGSLVYFRKIPVGKVYDYAINPNKQGVVIDVLIERRFTDLVKKGSRFWNVSGVDANVSISGAKVKLESLAALVNGAIAFDSPEESKPAEAEDTFGLYEDLAHSQRGVIIKLELPSGAGLTADSTPLMYQGLEVGQLTKLDLNPGGKVTGEMTVDPSVVTLLRENTRIELRNPKLSLSDANLSALLTGKTFELVPGDGEPRKEFVVVPGEKALLHEPDVLTLTLTAPESYGIDAGQPLILHGVQVGQVIDRKLTSKGVTFTVAIEPQHRELVKGDSKFVVNSRVDVKVGLDGVEFLGASASEWINGGIRILPGDKGEMKASYPLYANLEKALENSLSDLPTTTVSLSAETLPDVQAGSVVLYRKFEVGEVITVRPRANAFDIDLHIKPEYRNLLTSNSVFWAEGGAKVQLNGSGLTVQASPLSRALKGAISFDNLSGASASQRKGDKRILYASETAARAVGGQITLHAFDAGKLAVGMPIRYLGIDIGQIQTLDLITARNEVQAKAVLYPEYVQTFARGGTRFSVVTPQISAAGVEHLDTILQPYINVEPGRGNPRRDFELQEATITDSRYLDGLSIIVEAPEAGSLGIGTPVLFRGLEVGTVTGMTLGTLSDRVMIAMRISKRYQHLVRNNSVFWLASGYSLDFGLTGGVVKTGTFNQFIRGGIAFATPPGTPLAPKAQEGKHFLLQESEPKEWREWGTALPK
Broadly, the stoichiometry N is the number of molecules, sites or subunits per partner or assembly. As to B1, the “stoichiometry N” value is 6 LetB per LetA.
